Laboratory results from publication PMC8697598 (ACS Omega, 2021).

B1: Fe-AfGcHK, globin-coupled histidine kinase from Anaeromyxobacter sp. Fw109-5 reconstituted with heme (iron protoporphyrin IX) (enzyme, UniProt A7HD43 1-382, looked up)
chain: MTGVPETVFEELKRYVGWGDGDERALRSLHGAAAPHFPRLAEEFYDRILGHEGARTALVGGESQVGHLKVTMIAWLDELLGGPWDEAYWDRRYRIGRVHVRIGLPQHYMFGAMNVHRTGLARLAYERFHGDPPELERVRNALGKVLDLELAVMLHTYREDLLAQQARVERLSTFGQLVGSIGHDLRNPLGVIETSLYILRTRTGEDERARKHLDRIGEQLGVANGIITNLLDMIRDRPLAREPVELAAVVGGAAESVRRPTGVSLALEGLDALPPVEGDPGQLRQVFVNLLENAVFAASPEGVVAVRASRADGLVALDVEDSGPGVDPATRRRLFEPLITTKDKGIGLGLALVKRIAERHGGTVEYSDRPGGGARFTVRLPA
notes: AfGcHK, globin-coupled oxygen sensor histidine kinase from Anaeromyxobacter sp; Fw109-5; full-length protein with N-terminal globin sensor domain and C-terminal histidine kinase domain; predicted mass 43.0 kDa with the C-terminal His6 tag; Holds one equivalent of heme (iron protoporphyrin IX) per subunit; As purified, partially pre-autophosphorylated (about 10%, at His183); source: E. coli …
B2: Co-AfGcHK, cobalt-substituted AfGcHK (globin-coupled histidine kinase from Anaeromyxobacter sp. Fw109-5 reconstituted with cobalt protoporphyrin IX) (enzyme, UniProt A7HD43 1-382, looked up)
chain: B1 chain
notes: AfGcHK, globin-coupled oxygen sensor histidine kinase from Anaeromyxobacter sp; Fw109-5; full-length protein with N-terminal globin sensor domain and C-terminal histidine kinase domain; predicted mass 43.0 kDa with the C-terminal His6 tag; Same polypeptide and construct as m1; source: E. coli BL21(DE3), pET-21c; cobalt(III) protoporphyrin IX chloride added to the crude extract; purified (HisTrap …)

Key:
AfGcHK = target: T1, AfGcHK (Anaeromyxobacter sp. Fw109-5, UniProt A7HD43); test: autophosphorylation, Phos-tag SDS-PAGE; format: biochemical; conditions: Fe(III) and Fe(II)-O2 heme forms of Fe-AfGcHK; 1 mM ATP, 5 mM MgCl2, pH 8.0, 25 °C
T1 construct: gene gchK; full-length, C-terminal His6 tag kept, pET-21c in E. coli BL21(DE3); reconstituted with heme or cobalt protoporphyrin IX
T1 sequence (A7HD43 1-382): B1 chain

[1] = target: the molecule itself; test: SEC; analytical gel filtration, Superdex 200 Increase 10/300 GL, 50 mM Tris-HCl pH 8.0, 100 mM NaCl; molecular weight estimated from elution volumes of standard proteins

| Molecule | autophosphorylation, Phos-tag SDS-PAGE (AfGcHK) | stoichiometry N [1] |
| --- | --- | --- |
| Nc1ncnc2c1ncn2[C@@H]1O[C@H](COP(=O)(O)OP(=O)(O)OP(=O)(O)O)[C@@H](O)[C@H]1O [ATP] | the Fe(III), and Fe(II)-O2 complexes of Fe-AfGcHK displayed autophosphorylation activity | – |
| B1 | – | 2 |
| B2 | – | 2 |
